Experimental data reported in FireProtDB (doi:10.1016/0022-2836(92)90563-y).

B1: Ribonuclease, P00648 (parent)
chain: MMKMEGIALKKRLSWISVCLLVLVSAAGMLFSTAAKTETSSHKAHTEAQVINTFDGVADYLQTYHKLPDNYITKSEAQALGWVASKGNLADVAPGKSIGGDIFSNREGKLPGKSGRTWREADINYTSGFRNSDRILYSSDWLIYKTTDHYQTFTKIR

Variants of: B1
Conditions: Bacillus amyloliquefaciens; pH 6.3; 25 °C; Urea; Fluorescence; MES 50 micro M; reversible: yes; structure 1BNI; whole UniProt chain shown

| Variant | ddG of mutation (higher = less stable) |
| --- | --- |
| MMKMEGIALKKRLSWISVCLLVLVSAAGMLFSTAAKTETSSHKAHTEAQVVNTFDGVADYLQTYHKLPDNYITKSEAQALGWVASKGNLADVAPGKSIGGDIFSNREGKLPGKSGRTWREADINYTSGFRNSDRILYSSDWLIYKTTDHYQTFTKIR [I51V] | 0.67 kcal/mol |
| MMKMEGIALKKRLSWISVCLLVLVSAAGMLFSTAAKTETSSHKAHTEAQVIATFDGVADYLQTYHKLPDNYITKSEAQALGWVASKGNLADVAPGKSIGGDIFSNREGKLPGKSGRTWREADINYTSGFRNSDRILYSSDWLIYKTTDHYQTFTKIR [N52A] | 1.85 kcal/mol |
| MMKMEGIALKKRLSWISVCLLVLVSAAGMLFSTAAKTETSSHKAHTEAQVINAFDGVADYLQTYHKLPDNYITKSEAQALGWVASKGNLADVAPGKSIGGDIFSNREGKLPGKSGRTWREADINYTSGFRNSDRILYSSDWLIYKTTDHYQTFTKIR [T53A] | 2.15 kcal/mol |
| MMKMEGIALKKRLSWISVCLLVLVSAAGMLFSTAAKTETSSHKAHTEAQVINGFDGVADYLQTYHKLPDNYITKSEAQALGWVASKGNLADVAPGKSIGGDIFSNREGKLPGKSGRTWREADINYTSGFRNSDRILYSSDWLIYKTTDHYQTFTKIR [T53G] | 1.21 kcal/mol |
| MMKMEGIALKKRLSWISVCLLVLVSAAGMLFSTAAKTETSSHKAHTEAQVINTFDGAADYLQTYHKLPDNYITKSEAQALGWVASKGNLADVAPGKSIGGDIFSNREGKLPGKSGRTWREADINYTSGFRNSDRILYSSDWLIYKTTDHYQTFTKIR [V57A] | 3.4 kcal/mol |
| MMKMEGIALKKRLSWISVCLLVLVSAAGMLFSTAAKTETSSHKAHTEAQVINTFDGTADYLQTYHKLPDNYITKSEAQALGWVASKGNLADVAPGKSIGGDIFSNREGKLPGKSGRTWREADINYTSGFRNSDRILYSSDWLIYKTTDHYQTFTKIR [V57T] | 2.48 kcal/mol |
| MMKMEGIALKKRLSWISVCLLVLVSAAGMLFSTAAKTETSSHKAHTEAQVINTFDGVADALQTYHKLPDNYITKSEAQALGWVASKGNLADVAPGKSIGGDIFSNREGKLPGKSGRTWREADINYTSGFRNSDRILYSSDWLIYKTTDHYQTFTKIR [Y60A] | 3.71 kcal/mol |
| MMKMEGIALKKRLSWISVCLLVLVSAAGMLFSTAAKTETSSHKAHTEAQVINTFDGVADALQTAHKLPDNYITKSEAQALGWVASKGNLADVAPGKSIGGDIFSNREGKLPGKSGRTWREADINYTSGFRNSDRILYSSDWLIYKTTDHYQTFTKIR [Y60A Y64A] | 5 kcal/mol |
| MMKMEGIALKKRLSWISVCLLVLVSAAGMLFSTAAKTETSSHKAHTEAQVINTFDGVADYAQTYHKLPDNYITKSEAQALGWVASKGNLADVAPGKSIGGDIFSNREGKLPGKSGRTWREADINYTSGFRNSDRILYSSDWLIYKTTDHYQTFTKIR [L61A] | 4.32 kcal/mol |
| MMKMEGIALKKRLSWISVCLLVLVSAAGMLFSTAAKTETSSHKAHTEAQVINTFDGVADYLQRYHKLPDNYITKSEAQALGWVASKGNLADVAPGKSIGGDIFSNREGKLPGKSGRTWREADINYTSGFRNSDRILYSSDWLIYKTTDHYQTFTKIR [T63R] | -0.47 kcal/mol |
| MMKMEGIALKKRLSWISVCLLVLVSAAGMLFSTAAKTETSSHKAHTEAQVINTFDGVADYLQSYHKLPDNYITKSEAQALGWVASKGNLADVAPGKSIGGDIFSNREGKLPGKSGRTWREADINYTSGFRNSDRILYSSDWLIYKTTDHYQTFTKIR [T63S] | 1.68 kcal/mol |
| MMKMEGIALKKRLSWISVCLLVLVSAAGMLFSTAAKTETSSHKAHTEAQVINTFDGVADYLQSAHKLPDNYITKSEAQALGWVASKGNLADVAPGKSIGGDIFSNREGKLPGKSGRTWREADINYTSGFRNSDRILYSSDWLIYKTTDHYQTFTKIR [T63S Y64A] | 2.55 kcal/mol |
| MMKMEGIALKKRLSWISVCLLVLVSAAGMLFSTAAKTETSSHKAHTEAQVINTFDGVADYLQTAHKLPDNYITKSEAQALGWVASKGNLADVAPGKSIGGDIFSNREGKLPGKSGRTWREADINYTSGFRNSDRILYSSDWLIYKTTDHYQTFTKIR [Y64A] | 2.43 kcal/mol |
| MMKMEGIALKKRLSWISVCLLVLVSAAGMLFSTAAKTETSSHKAHTEAQVINTFDGVADYLQTYQKLPDNYITKSEAQALGWVASKGNLADVAPGKSIGGDIFSNREGKLPGKSGRTWREADINYTSGFRNSDRILYSSDWLIYKTTDHYQTFTKIR [H65Q] | 1.44 kcal/mol |
| MMKMEGIALKKRLSWISVCLLVLVSAAGMLFSTAAKTETSSHKAHTEAQVINTFDGVADYLQTYHKLPDNYVTKSEAQALGWVASKGNLADVAPGKSIGGDIFSNREGKLPGKSGRTWREADINYTSGFRNSDRILYSSDWLIYKTTDHYQTFTKIR [I72V] | 1.12 kcal/mol |
| MMKMEGIALKKRLSWISVCLLVLVSAAGMLFSTAAKTETSSHKAHTEAQVINTFDGVADYLQTYHKLPDNYIAKSEAQALGWVASKGNLADVAPGKSIGGDIFSNREGKLPGKSGRTWREADINYTSGFRNSDRILYSSDWLIYKTTDHYQTFTKIR [T73A] | 1.93 kcal/mol |
| MMKMEGIALKKRLSWISVCLLVLVSAAGMLFSTAAKTETSSHKAHTEAQVINTFDGVADYLQTYHKLPDNYIGKSEAQALGWVASKGNLADVAPGKSIGGDIFSNREGKLPGKSGRTWREADINYTSGFRNSDRILYSSDWLIYKTTDHYQTFTKIR [T73G] | 1.42 kcal/mol |
| MMKMEGIALKKRLSWISVCLLVLVSAAGMLFSTAAKTETSSHKAHTEAQVINTFDGVADYLQTYHKLPDNYITKSGAQALGWVASKGNLADVAPGKSIGGDIFSNREGKLPGKSGRTWREADINYTSGFRNSDRILYSSDWLIYKTTDHYQTFTKIR [E76G] | 1.76 kcal/mol |

| Variant | ddG of mutation (higher = less stable) |
| --- | --- |
| MMKMEGIALKKRLSWISVCLLVLVSAAGMLFSTAAKTETSSHKAHTEAQVINTFDGVADYLQTYHKLPDNYITKSEAQAQGWVASKGNLADVAPGKSIGGDIFSNREGKLPGKSGRTWREADINYTSGFRNSDRILYSSDWLIYKTTDHYQTFTKIR [L80Q] | 1.3 kcal/mol |
| MMKMEGIALKKRLSWISVCLLVLVSAAGMLFSTAAKTETSSHKAHTEAQVINTFDGVADYLQTYHKLPDNYITKSEAQALGWTASKGNLADVAPGKSIGGDIFSNREGKLPGKSGRTWREADINYTSGFRNSDRILYSSDWLIYKTTDHYQTFTKIR [V83T] | 1.15 kcal/mol |
| MMKMEGIALKKRLSWISVCLLVLVSAAGMLFSTAAKTETSSHKAHTEAQVINTFDGVADYLQTYHKLPDNYITKSEAQALGWVASKGNLADAAPGKSIGGDIFSNREGKLPGKSGRTWREADINYTSGFRNSDRILYSSDWLIYKTTDHYQTFTKIR [V92A] | 1.72 kcal/mol |
| MMKMEGIALKKRLSWISVCLLVLVSAAGMLFSTAAKTETSSHKAHTEAQVINTFDGVADYLQTYHKLPDNYITKSEAQALGWVASKGNLADTAPGKSIGGDIFSNREGKLPGKSGRTWREADINYTSGFRNSDRILYSSDWLIYKTTDHYQTFTKIR [V92T] | 2.32 kcal/mol |
| MMKMEGIALKKRLSWISVCLLVLVSAAGMLFSTAAKTETSSHKAHTEAQVINTFDGVADYLQTYHKLPDNYITKSEAQALGWVASKGNLADVAPGKSVGGDIFSNREGKLPGKSGRTWREADINYTSGFRNSDRILYSSDWLIYKTTDHYQTFTKIR [I98V] | 1.8 kcal/mol |
| MMKMEGIALKKRLSWISVCLLVLVSAAGMLFSTAAKTETSSHKAHTEAQVINTFDGVADYLQTYHKLPDNYITKSEAQALGWVASKGNLADVAPGKSIGGDVFSNREGKLPGKSGRTWREADINYTSGFRNSDRILYSSDWLIYKTTDHYQTFTKIR [I102V] | 0.3 kcal/mol |
| MMKMEGIALKKRLSWISVCLLVLVSAAGMLFSTAAKTETSSHKAHTEAQVINTFDGVADYLQTYHKLPDNYITKSEAQALGWVASKGNLADVAPGKSIGGDIFSAREGKLPGKSGRTWREADINYTSGFRNSDRILYSSDWLIYKTTDHYQTFTKIR [N105A] | 2.17 kcal/mol |
| MMKMEGIALKKRLSWISVCLLVLVSAAGMLFSTAAKTETSSHKAHTEAQVINTFDGVADYLQTYHKLPDNYITKSEAQALGWVASKGNLADVAPGKSIGGDIFSNREGRLPGKSGRTWREADINYTSGFRNSDRILYSSDWLIYKTTDHYQTFTKIR [K109R] | 0.43 kcal/mol |
| MMKMEGIALKKRLSWISVCLLVLVSAAGMLFSTAAKTETSSHKAHTEAQVINTFDGVADYLQTYHKLPDNYITKSEAQALGWVASKGNLADVAPGKSIGGDIFSNREGKLPGKSGRTWREADVNYTSGFRNSDRILYSSDWLIYKTTDHYQTFTKIR [I123V] | 0.82 kcal/mol |
| MMKMEGIALKKRLSWISVCLLVLVSAAGMLFSTAAKTETSSHKAHTEAQVINTFDGVADYLQTYHKLPDNYITKSEAQALGWVASKGNLADVAPGKSIGGDIFSNREGKLPGKSGRTWREADIAYTSGFRNSDRILYSSDWLIYKTTDHYQTFTKIR [N124A] | 1.66 kcal/mol |
| MMKMEGIALKKRLSWISVCLLVLVSAAGMLFSTAAKTETSSHKAHTEAQVINTFDGVADYLQTYHKLPDNYITKSEAQALGWVASKGNLADVAPGKSIGGDIFSNREGKLPGKSGRTWREADINFTSGFRNSDRILYSSDWLIYKTTDHYQTFTKIR [Y125F] | 1.35 kcal/mol |
| MMKMEGIALKKRLSWISVCLLVLVSAAGMLFSTAAKTETSSHKAHTEAQVINTFDGVADYLQTYHKLPDNYITKSEAQALGWVASKGNLADVAPGKSIGGDIFSNREGKLPGKSGRTWREADINYTSGFRASDRILYSSDWLIYKTTDHYQTFTKIR [N131A] | 2.02 kcal/mol |
| MMKMEGIALKKRLSWISVCLLVLVSAAGMLFSTAAKTETSSHKAHTEAQVINTFDGVADYLQTYHKLPDNYITKSEAQALGWVASKGNLADVAPGKSIGGDIFSNREGKLPGKSGRTWREADINYTSGFRNSDRVLYSSDWLIYKTTDHYQTFTKIR [I135V] | 1.34 kcal/mol |
| MMKMEGIALKKRLSWISVCLLVLVSAAGMLFSTAAKTETSSHKAHTEAQVINTFDGVADYLQTYHKLPDNYITKSEAQALGWVASKGNLADVAPGKSIGGDIFSNREGKLPGKSGRTWREADINYTSGFRNSDRILYASDWLIYKTTDHYQTFTKIR [S138A] | 1.94 kcal/mol |
| MMKMEGIALKKRLSWISVCLLVLVSAAGMLFSTAAKTETSSHKAHTEAQVINTFDGVADYLQTYHKLPDNYITKSEAQALGWVASKGNLADVAPGKSIGGDIFSNREGKLPGKSGRTWREADINYTSGFRNSDRILYSADWLIYKTTDHYQTFTKIR [S139A] | 2.8 kcal/mol |
| MMKMEGIALKKRLSWISVCLLVLVSAAGMLFSTAAKTETSSHKAHTEAQVINTFDGVADYLQTYHKLPDNYITKSEAQALGWVASKGNLADVAPGKSIGGDIFSNREGKLPGKSGRTWREADINYTSGFRNSDRILYSSDWLIYKVTDHYQTFTKIR [T146V] | 2.99 kcal/mol |
| MMKMEGIALKKRLSWISVCLLVLVSAAGMLFSTAAKTETSSHKAHTEAQVINTFDGVADYLQTYHKLPDNYITKSEAQALGWVASKGNLADVAPGKSIGGDIFSNREGKLPGKSGRTWREADINYTSGFRNSDRILYSSDWLIYKTTDHYQVFTKIR [T152V] | 2.25 kcal/mol |
| MMKMEGIALKKRLSWISVCLLVLVSAAGMLFSTAAKTETSSHKAHTEAQVINTFDGVADYLQTYHKLPDNYITKSEAQALGWVASKGNLADVAPGKSIGGDIFSNREGKLPGKSGRTWREADINYTSGFRNSDRILYSSDWLIYKTTDHYQTFTKVR [I156V] | 0.76 kcal/mol |
